Where a chain is given by its changes, count along the chain named.
T1: human TL1A-His protein (human, UniProt O95150 72-251)
T1 construct: also called human TL1A extracellular domain (TL1A-ECD) with 6×His tag
T1 sequence: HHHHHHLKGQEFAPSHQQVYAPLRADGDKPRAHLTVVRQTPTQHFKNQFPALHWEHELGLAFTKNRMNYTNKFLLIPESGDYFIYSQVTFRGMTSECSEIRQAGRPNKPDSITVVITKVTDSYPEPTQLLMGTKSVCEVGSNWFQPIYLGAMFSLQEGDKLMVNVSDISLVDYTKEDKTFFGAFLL

B1: 311V25 (antibody, human IgG1, kappa, L234A L235A, V domains shown)
VH: EVQLVESGGGLVQPGGSLKLSCAASGFTFSNYWMNWVRQASGKGLEWVGGIRLKSNNYATQYAESVKGRFTISRDDSKNTAYLQMNSLKTEDTAVYYCTPLLLNGMDYWGQGTTVTVSS
VL: EIVLTQSPDFQSVTPKEKVTITCSASSSVSYMHWYQQKPDQSPKLWIYDTSNLASGVPSRFSGSGSGTDFTLTINSLEAEDAATYYCFQESGYPFTFGQGTKLEIKR
B2: 311V34-7 (antibody, human IgG1, kappa, L234A L235A, V domains shown)
VH: B1 VH with A59R, N104S
VL: B1 VL
B3: 311V34 (antibody, human IgG1, kappa, L234A L235A, V domains shown)
VH: B1 VH with A59R
VL: B1 VL
B4: 311V31-7 (antibody, human IgG1, kappa, L234A L235A, V domains shown)
VH: B1 VH with A59K, N104S
VL: B1 VL
B5: 311V31 (antibody, human IgG1, kappa, L234A L235A, V domains shown)
VH: B1 VH with A59K
VL: B1 VL
B6: 311V25-7 (antibody, human IgG1, kappa, L234A L235A, V domains shown)
VH: B1 VH with N104S
VL: B1 VL
B7: humanized antibody 72851 (antibody, human IgG1, kappa, L234A L235A, V domains shown)
VH: QVQLVQSGAEVKKPGASVKVSCKASGYSFTGYTMNWVRQAPGQNLEWIGLINPYSGGTNYNQKFKGRATLTVDTSISTAYMELSRLRSDDTAVYYCASIYQRHDGIAYWGQGTLVTVSS
VL: EIVLTQSPDFQSVTPKEKVTITCSASSSVNYMHWYQQKPDQSPKLLIKDTSKLASGVPSRFSGSGSGTDFTLTINSLEAEDAATYYCQQWSSSPYTFGGGTKVEIKR
notes: Humanized from 728H4D9; human IgG1/kappa
B8: humanized antibody 31122 (antibody, human IgG1, kappa, L234A L235A, V domains shown)
VH: B1 VH with A59T
VL: B1 VL
notes: Humanized from 311C9E10; human IgG1/kappa

Target: T1, human TL1A-His protein
Experiment: ELISA

Molecule | binding result
B1 | binds
B2 | binds
B3 | binds
B4 | binds
B5 | binds
B6 | binds

Target: T1, human TL1A-His protein
Experiment: SPR (Biacore 8K), antibody captured on Protein A chip, TL1A-his as analyte

Molecule | Kd | koff | kon
positive control antibody PRA023 | 0.537 nM | 0.000166 s⁻¹ | 308000 M⁻¹ s⁻¹
B7 | 0.212 nM | 0.000212 s⁻¹ | 1e+06 M⁻¹ s⁻¹
B8 | 0.394 nM | 0.000159 s⁻¹ | 405000 M⁻¹ s⁻¹
